As a reminder, the IC50 is the concentration that gives 50% inhibition.

Sequences and labels used below:
B1: I-1794 (peptide)
peptide: Ac-[αAllylPro]D[tBuAla][B5(3)]DHAAF[hSer][PyrS2″][3Thi][Bta]Q-NH2
modifications: staple 1-4, 4-11; not fully specified; printed as Ac-PL3-Asp-Npg-B5-Asp-His-Ala-Ala-Phe-Hse-PyrS2-3Thi-BztA-Gln-NH2

Starred links: 1 amine or outer side, 2 acyl side, 3 side chain; linkers in the order of their positions; H or OH if unused. Positions of bridges follow the written chain, without caps; N, C: chain ends. Non-standard residues stand in square brackets, D forms with d. Primed or numbered codes have the meaning given here. *: point of attachment. (SO2MorphCH2)TriAzDap = (S)-2-amino-3-(4-((1,1-dioxidothiomorpholino)methyl)-1H-1,2,3-triazol-1-yl)propanoic acid, O=C([C@H](Cn1cc(CN2CCS(=O)(=O)CC2)nn1)N[*:1])[*:2]; (CH2Ppz)TriAzDap = (S)-2-amino-3-(4-(piperazin-1-ylmethyl)-1H-1,2,3-triazol-1-yl)propanoic acid, O=C([C@H](Cn1cc(CN2CCN([*:3])CC2)nn1)N[*:1])[*:2]; PyrS2(3) = (S)-3-amino-1-((pent-4-en-1-yloxy)carbonyl)pyrrolidine-3-carboxylic acid, stapling residue, C=CCCCOC(=O)N1CC[C@@](N[*:1])(C(=O)[*:2])C1; PyrS2″ = (S)-3-amino-1-((pent-4-en-1-yloxy)carbonyl)pyrrolidine-3-carboxylic acid (stapling residue), C=CCCCOC(=O)N1CC[C@@](N[*:1])(C(=O)[*:2])C1; (CH2NMe2)TriAzDap = (S)-2-amino-3-(4-((dimethylamino)methyl)-1H-1,2,3-triazol-1-yl)propanoic acid, CN(C)Cc1cn(C[C@H](N[*:1])C(=O)[*:2])nn1; (MorphCH2)TriAzDap = (S)-2-amino-3-(4-(morpholinomethyl)-1H-1,2,3-triazol-1-yl)propanoic acid, O=C([C@H](Cn1cc(CN2CCOCC2)nn1)N[*:1])[*:2]; B5(18) = 2,2-bis(4-pentenyl)glycine (2-amino-2-(pent-4-en-1-yl)hept-6-enoic acid), stitching residue, C=CCCCC(CCCC=C)(N[*:1])C(=O)[*:2]; B5(4) = 2,2-bis(4-pentenyl)glycine = 2-amino-2-(pent-4-en-1-yl)hept-6-enoic acid (stitching residue), C=CCCCC(CCCC=C)(N[*:1])C(=O)[*:2]; B5(5) = 2,2-bis(4-pentenyl)glycine, 2-amino-2-(pent-4-en-1-yl)hept-6-enoic acid (stitching residue), C=CCCCC(CCCC=C)(N[*:1])C(=O)[*:2]; TfeGA = (S)-2-amino-3-((carboxymethyl)(2,2,2-trifluoroethyl)amino)propanoic acid, O=C([C@H](CN(CC(=O)[*:3])CC(F)(F)F)N[*:1])[*:2]; PyrS2 = (S)-3-amino-1-((pent-4-en-1-yloxy)carbonyl)pyrrolidine-3-carboxylic acid, C=CCCCOC(=O)N1CC[C@@](N[*:1])(C(=O)[*:2])C1; MorphAsn = (S)-2-amino-4-morpholino-4-oxobutanoic acid, O=C(C[C@H](N[*:1])C(=O)[*:2])N1CCOCC1; B5(3) = 2,2-bis(4-pentenyl)glycine (stitching residue), C=CCCCC(CCCC=C)(N[*:1])C(=O)[*:2]; B5 = 2-amino-2-(pent-4-en-1-yl)hept-6-enoic acid, C=CCCCC(CCCC=C)(N[*:1])C(=O)[*:2]; Me2Asn = listed as N4-methyl-L-asparagine, CNC(=O)C[C@H](N[*:1])C(=O)[*:2]; MeAsn = N4-methyl-L-asparagine, CNC(=O)C[C@H](N[*:1])C(=O)[*:2]; Phe(3-COOH) = N[C@@H](Cc1cccc(C(=O)O)c1)C(=O)O; Phe(2-CF3) = N[C@@H](Cc1ccccc1C(F)(F)F)C(=O)O; Phe(2-Cl) = N[C@@H](Cc1ccccc1Cl)C(=O)O; Bta = N[C@@H](Cc1csc2ccccc12)C(=O)O; Isobutyloxycarbonyl = CC(C)COC(=O)*; αAllylPro = C=CC[C@@]1(C(=O)O)CCCN1; tBuAla = CC(C)(C)C[C@H](N)C(=O)O; 3Thi = N[C@@H](Cc1ccsc1)C(=O)O; Cha = N[C@@H](CC1CCCCC1)C(=O)O; Butoxycarbonyl = CCCCOC(=O)*; 4ClBztA = not defined here; hSer = N[C@@H](CCO)C(=O)O; Ac5c = NC1(C(=O)O)CCCC1; Ac3c = NC1(C(=O)O)CC1; Aib = CC(C)(N)C(=O)O; Moc = COC(=O)*

For the first assay, the target named is full-length beta-Catenin (Uniprot ID P35222) (Homo sapiens (Human)) (UniProt P35222). In words: fluorescence polarization competition; 10 nM full-length beta-catenin, competitor 10 nM 5FAM-TCF4(10-53). Background: In fluorescence polarisation assays a small probe gives low polarisation when free and higher when bound to something large.
Sequence of full-length beta-Catenin (Uniprot ID P35222) (Homo sapiens (Human)) (P35222 whole entry): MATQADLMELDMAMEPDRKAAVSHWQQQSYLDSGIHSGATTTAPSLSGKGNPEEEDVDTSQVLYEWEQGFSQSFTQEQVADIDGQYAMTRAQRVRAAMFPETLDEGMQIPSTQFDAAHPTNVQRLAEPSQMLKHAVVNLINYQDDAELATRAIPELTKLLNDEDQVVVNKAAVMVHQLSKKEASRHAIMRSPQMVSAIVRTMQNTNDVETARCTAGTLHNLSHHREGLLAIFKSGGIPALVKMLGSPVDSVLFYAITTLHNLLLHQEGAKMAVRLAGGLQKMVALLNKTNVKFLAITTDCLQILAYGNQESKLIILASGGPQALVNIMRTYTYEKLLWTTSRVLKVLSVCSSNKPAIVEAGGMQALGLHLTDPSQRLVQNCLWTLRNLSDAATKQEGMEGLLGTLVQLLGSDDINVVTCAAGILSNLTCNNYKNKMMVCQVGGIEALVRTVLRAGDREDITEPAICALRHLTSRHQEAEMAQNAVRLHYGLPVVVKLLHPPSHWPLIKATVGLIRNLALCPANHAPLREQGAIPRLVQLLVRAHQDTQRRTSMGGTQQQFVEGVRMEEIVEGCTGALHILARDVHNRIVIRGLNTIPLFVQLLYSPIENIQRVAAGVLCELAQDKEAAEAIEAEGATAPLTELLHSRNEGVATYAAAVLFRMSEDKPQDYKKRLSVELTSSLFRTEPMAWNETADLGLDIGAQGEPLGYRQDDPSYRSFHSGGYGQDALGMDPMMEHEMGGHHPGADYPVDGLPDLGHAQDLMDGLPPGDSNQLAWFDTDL
Turning to Ac-[αAllylPro]D[tBuAla][B5]NT[Aib]AF[Me2Asn][PyrS2][3Thi][Bta]N-NH2 (staple 1-4, 4-11) [I-2496], the 50% inhibitory concentration (IC50) is 106 nM.
Ac-[αAllylPro]D[tBuAla][B5(5)]D[TfeGA]AA[(CH2NMe2)TriAzDap]L[PyrS2″][3Thi][Bta]Q-NH2 (staple 1-4, 4-11; also: separately listed staple isomer composition) [I-1855] returned a half-maximal inhibitory concentration (IC50) of 849 nM.
In the case of Ac-[αAllylPro]D[tBuAla][B5(4)]NT[Ac5c]AFN[PyrS2″][3Thi][Bta]Q-NH2 (staple 1-4, 4-11) [I-2493], the half-inhibitory concentration (IC50) came out at 267 nM.
On the same count and under the same terms, to Ac-[αAllylPro]D[tBuAla][B5(5)]D[TfeGA]AA[(CH2Ppz)TriAzDap]L[PyrS2″][3Thi][Bta]Q-NH2 (staple 1-4, 4-11; also: separately listed staple isomer composition) [I-1857] belongs 4020 nM.
Molecule Ac-[αAllylPro]N[tBuAla][B5(18)]D[Phe(3-COOH)]AAFL[PyrS2(3)][Phe(2-Cl)][Bta]S-NH2 (staple 1-4, 4-11) [I-1853] gave a 50% inhibitory concentration (IC50) of 114 nM.
Consider Ac-[αAllylPro]D[tBuAla][B5(18)]D[Phe(3-COOH)]AAFA[PyrS2(3)][Phe(2-Cl)][Bta]S-NH2 (staple 1-4, 4-11) [I-1849], for which the IC50 was 19 nM.
Ac-[αAllylPro]D[tBuAla][B5]NT[Aib]AFN[PyrS2][3Thi][Bta][Me2Asn]-NH2 (staple 1-4, 4-11) [I-2494] returned an IC50 of 102 nM.
On the same count and under the same terms, for Ac-[αAllylPro]D[tBuAla][B5]NT[Aib]AF[MeAsn][PyrS2][3Thi][Bta]N-NH2 (staple 1-4, 4-11) [I-2497] the value was 105 nM; for Ac-[αAllylPro]N[Cha][B5]DQ[hSer]AFL[PyrS2]F[Bta][MorphAsn]-NH2 (staple 1-4, 4-11) [I-2498], 449 nM.
Ac-[αAllylPro]D[tBuAla][B5(5)]D[TfeGA]AA[(MorphCH2)TriAzDap]L[PyrS2″][3Thi][Bta]Q-NH2 (staple 1-4, 4-11; also: separately listed staple isomer composition) [I-1859]: the IC50 is 1110 nM.
As to Ac-[αAllylPro]D[tBuAla][B5(18)]D[Phe(3-COOH)]AAFL[PyrS2(3)][Phe(2-Cl)][Bta]A-NH2 (staple 1-4, 4-11) [I-1851], the concentration for half-maximal inhibition (IC50) was determined as 25 nM.
Turning to Ac-[αAllylPro]D[tBuAla][B5(4)]D[Phe(3-COOH)]QAFL[PyrS2″][Phe(2-CF3)][7ClBztA]A-NH2 (staple 1-4, 4-11) [I-2487], the half-inhibitory concentration (IC50) amounted to 36 nM.
For the molecule Ac-[αAllylPro]D[tBuAla][B5(18)]D[Phe(3-COOH)]AAFL[PyrS2(3)][Phe(2-Cl)][Bta]-NH2 (staple 1-4, 4-11) [I-1852], the IC50 worked out at 48 nM.
Same read-out and setting: to Ac-[αAllylPro]D[tBuAla][B5(5)]D[TfeGA]AA[(SO2MorphCH2)TriAzDap]L[PyrS2″][3Thi][Bta]Q-NH2 (staple 1-4, 4-11) [I-1860] belongs 512 nM; to Ac-[αAllylPro]D[tBuAla][B5(4)]NT[Ac3c]AFN[PyrS2″][3Thi][Bta]Q-NH2 (staple 1-4, 4-11) [I-2492], 174 nM; to Ac-[αAllylPro]D[tBuAla][B5(4)]D[Phe(3-COOH)]QAFL[PyrS2″][Phe(2-CF3)][7FBztA]A-NH2 (staple 1-4, 4-11) [I-2489], 29 nM.
For the molecule Ac-[αAllylPro]D[tBuAla][B5(4)]D[Phe(3-COOH)]QAFL[PyrS2″][Phe(2-CF3)][4ClBztA]A-NH2 (staple 1-4, 4-11; reading uncertain) [I-2491], the half-maximal inhibitory concentration (IC50) was 49 nM.
Regarding Ac-[αAllylPro]D[tBuAla][B5(18)]D[Phe(3-COOH)]AAFV[PyrS2(3)][Phe(2-Cl)][Bta]S-NH2 (staple 1-4, 4-11) [I-1850], the half-inhibitory concentration (IC50) was found to be 17 nM.
On to Ac-[αAllylPro]D[tBuAla][B5]NT[Aib]AFN[PyrS2][3Thi][Bta][MeAsn]-NH2 (staple 1-4, 4-11) [I-2495], for which the half-inhibitory concentration (IC50) was found to be 95 nM.
Regarding Ac-[αAllylPro]D[tBuAla][B5(5)]D[TfeGA]AA[(MorphCH2)TriAzDap]L[PyrS2″][3Thi][Bta]Q-NH2 (staple 1-4, 4-11; also: separately listed staple isomer composition) [I-1858], the IC50 stood at 1110 nM.
On the same count and under the same terms, for Ac-[αAllylPro]N[Cha][B5]DQ[Me2Gln]AFL[PyrS2]F[Bta][MorphAsn]-NH2 (staple 1-4, 4-11) [I-2501] the value was 154 nM.

A further assay has the same target. Nature of the assay: fluorescence polarization competition against 5FAM-TCF4 10-53 on full-length beta-catenin.
Consider {3‑(allyloxy)benzoyl}-PD[tBuAla][B5(5)]D[TfeGA]AAFL[PyrS2″][3Thi][Bta]Q-NH2 (staple 4-11, N-4; also: -CH=CH- in each staple reduced to -CH2-CH2-) [I-2377], for which the 50% inhibitory concentration (IC50) is 978 nM.
In turn, Butoxycarbonyl-[αAllylPro]D[tBuAla][B5(4)]DDAAFQ[PyrS2″][3Thi][Bta]H-NH2 (staple 1-4, 4-11) [I-2363] gave an IC50 of 44 nM.
In the case of Isobutyloxycarbonyl-[αAllylPro]D[tBuAla][B5(4)]DDAAFQ[PyrS2″][3Thi][Bta]H-NH2 (staple 1-4, 4-11) [I-2364], the IC50 turned out to be 116 nM.
As to Moc-[αAllylPro]D[tBuAla][B5(4)]DDAAFQ[PyrS2″][3Thi][Bta]H-NH2 (staple 1-4, 4-11) [I-2362], the concentration for half-maximal inhibition (IC50) turned out to be 66 nM.
Turning to B1, the 50% inhibitory concentration (IC50) was 52 nM.

For the origin of these results see patent publication US20240116985A1, “STAPLED PEPTIDES AND METHODS THEREOF” (priority 2020, published 2024).
